Reference: publication doi:10.1101/2021.09.30.462597 (bioRxiv, 2021)
Like-named read-outs stand apart in the source and are kept apart here. Values belong to the molecule of their own block, whether it stands above or below them.

B1: Kif7-DM-GFP (1-543aa), dimeric Kif7 protein (domain or fragment, human, UniProt Q2M1P5 1-543, looked up)
chain: MGLEAQRLPGAEEAPVRVALRVRPLLPKELLHGHQSCLQVEPGLGRVTLGRDRHFGFHVVLAEDAGQEAVYQACVQPLLEAFFEGFNATVFAYGQTGSGKTYTMGEASVASLLEDEQGIVPRAMAEAFKLIDENDLLDCLVHVSYLEVYKEEFRDLLEVGTASRDIQLREDERGNVVLCGVKEVDVEGLDEVLSLLEMGNAARHTGATHLNHLSSRSHTVFTVTLEQRGRAPSRLPRPAPGQLLVSKFHFVDLAGSERVLKTGSTGERLKESIQINSSLLALGNVISALGDPQRRGSHIPYRDSKITRILKDSLGGNAKTVMIACVSPSSSDFDETLNTLNYASRAQNIRNRATVNWRPEAERPPEETASGARGPPRHRSETRIIHRGRRAPGPATASAAAAMRLGAECARYRACTDAAYSLLRELQAEPGLPGAAARKVRDWLCAVEGERSALSSASGPDSGIESASVEDQAAQGAGGRKEDEGAQQLLTLQNQVARLEEENRDFLAALEDAMEQYKLQSDRLREQQEEMVELRLRLELVRP
B2: Kif7-DM(E502A)-GFP (domain or fragment, human, UniProt Q2M1P5 1-543, looked up)
chain: MGLEAQRLPGAEEAPVRVALRVRPLLPKELLHGHQSCLQVEPGLGRVTLGRDRHFGFHVVLAEDAGQEAVYQACVQPLLEAFFEGFNATVFAYGQTGSGKTYTMGEASVASLLEDEQGIVPRAMAEAFKLIDENDLLDCLVHVSYLEVYKEEFRDLLEVGTASRDIQLREDERGNVVLCGVKEVDVEGLDEVLSLLEMGNAARHTGATHLNHLSSRSHTVFTVTLEQRGRAPSRLPRPAPGQLLVSKFHFVDLAGSERVLKTGSTGERLKESIQINSSLLALGNVISALGDPQRRGSHIPYRDSKITRILKDSLGGNAKTVMIACVSPSSSDFDETLNTLNYASRAQNIRNRATVNWRPEAERPPEETASGARGPPRHRSETRIIHRGRRAPGPATASAAAAMRLGAECARYRACTDAAYSLLRELQAEPGLPGAAARKVRDWLCAVEGERSALSSASGPDSGIESASVEDQAAQGAGGRKEDEGAQQLLTLQNQVARLEEANRDFLAALEDAMEQYKLQSDRLREQQEEMVELRLRLELVRP

Key:
[1] = molecular target: Kif27M-Kif7CC chimera (GFP) (human); assay: SEC
[2] = molecular target: Kif7M-Kif27CC chimera (GFP) (human); assay: SEC
Gli2-ZF-GFP = molecular target: T1, Gli2-ZF-GFP (human, UniProt P10070 418-604); assay: SEC
T1 sequence (looked up): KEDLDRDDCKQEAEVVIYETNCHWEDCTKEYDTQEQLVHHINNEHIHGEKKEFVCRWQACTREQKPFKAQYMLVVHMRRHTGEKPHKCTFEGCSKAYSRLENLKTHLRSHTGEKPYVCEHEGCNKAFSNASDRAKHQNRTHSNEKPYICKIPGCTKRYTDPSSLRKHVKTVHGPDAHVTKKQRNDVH

[3] = molecular target: GDP-taxol stabilized microtubules from bovine tubulin (co-sedimentation) (bovine) (UniProt Q6B856); assay: co-sedimentation
[4] = molecular target: GDP-taxol stabilized microtubules from bovine tubulin (co-sedimentation) (bovine) (UniProt Q6B856); assay: co-sedimentation; remark: listed apart in the source
SEC = molecular target: the molecule itself; assay: SEC
[5] = molecular target: T2, Gli2-ZF, zinc-finger domain of Gli2 (recombinant) (human, UniProt P10070 418-604); assay: BLI
T2 sequence (looked up): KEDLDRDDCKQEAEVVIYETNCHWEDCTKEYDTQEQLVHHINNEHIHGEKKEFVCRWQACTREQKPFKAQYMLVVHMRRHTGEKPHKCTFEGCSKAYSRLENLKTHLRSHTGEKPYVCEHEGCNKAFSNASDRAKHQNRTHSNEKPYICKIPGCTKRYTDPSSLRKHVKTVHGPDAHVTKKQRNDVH

[6] = molecular target: the molecule itself; assay: single molecule fluorescence intensity and photobleaching analysis
Kif7-DM(E502A)-GFP = molecular target: B2; assay: TIRF microscopy of proteins on immobilised microtubules
[7] = molecular target: B1; assay: as above

Molecule: Kif7M-Kif27CC chimera (GFP)
- stoichiometry N [2]: 2

Molecule: B1
- stoichiometry N (Gli2-ZF-GFP): 1 Kif7-DM per Gli2-ZF
- Kd [3]: 540 nM
- Kd [4]: 4230 nM

Molecule: B2
- stoichiometry N (SEC): 2

B5: GST-Kif7-CC (460-600aa) (domain or fragment, human, UniProt Q2M1P5 460-600, looked up)
chain: PDSGIESASVEDQAAQGAGGRKEDEGAQQLLTLQNQVARLEEENRDFLAALEDAMEQYKLQSDRLREQQEEMVELRLRLELVRPGWGGPRLLNGLPPGSFVPRPHTAPLGGAHAHVLGMVPPACLPGDEVGSEQRGEQVTN
- Kd [5]: 48 ± 5 nM

B6: GFP-tagged GST-Kif7-CC (domain or fragment, human, UniProt Q2M1P5 460-600, looked up)
chain: PDSGIESASVEDQAAQGAGGRKEDEGAQQLLTLQNQVARLEEENRDFLAALEDAMEQYKLQSDRLREQQEEMVELRLRLELVRPGWGGPRLLNGLPPGSFVPRPHTAPLGGAHAHVLGMVPPACLPGDEVGSEQRGEQVTN
- stoichiometry N [6]: 2

Continued, values first:

- stoichiometry N [1]: 2
Molecule: Kif27M-Kif7CC chimera (GFP)

- Kd [5]: 69 ± 20 nM
B3: GST-Kif7-SCC (481-543aa) (domain or fragment, human, UniProt Q2M1P5 481-543, looked up)
chain: KEDEGAQQLLTLQNQVARLEEENRDFLAALEDAMEQYKLQSDRLREQQEEMVELRLRLELVRP

- stoichiometry N (Gli2-ZF-GFP): 2 Kif7-CC-GFP per Gli2-ZF-GFP
B4: Kif7-CC-GFP (domain or fragment, human, UniProt Q2M1P5 460-600, looked up)
chain: PDSGIESASVEDQAAQGAGGRKEDEGAQQLLTLQNQVARLEEENRDFLAALEDAMEQYKLQSDRLREQQEEMVELRLRLELVRPGWGGPRLLNGLPPGSFVPRPHTAPLGGAHAHVLGMVPPACLPGDEVGSEQRGEQVTN

- binding result [5]: binds
B7: GST-Kif7-CC D505A (domain or fragment, human, UniProt Q2M1P5 460-600, looked up)
chain: PDSGIESASVEDQAAQGAGGRKEDEGAQQLLTLQNQVARLEEENRAFLAALEDAMEQYKLQSDRLREQQEEMVELRLRLELVRPGWGGPRLLNGLPPGSFVPRPHTAPLGGAHAHVLGMVPPACLPGDEVGSEQRGEQVTN

- binding result (Kif7-DM(E502A)-GFP): binds
- fold above the background fluorescence of Gli alone on microtubules [7]: ~3 fold
B8: Gli2-ZF-SNAP (domain or fragment, human, UniProt P10070 418-604, looked up)
chain: KEDLDRDDCKQEAEVVIYETNCHWEDCTKEYDTQEQLVHHINNEHIHGEKKEFVCRWQACTREQKPFKAQYMLVVHMRRHTGEKPHKCTFEGCSKAYSRLENLKTHLRSHTGEKPYVCEHEGCNKAFSNASDRAKHQNRTHSNEKPYICKIPGCTKRYTDPSSLRKHVKTVHGPDAHVTKKQRNDVH
modifications: Alexa-647 label (in the TIRF assays)
